B1: AtUBR4 ZZ domain (domain or fragment)
chain: SSVQYCCDGCSTVPILRRRWHCTVCPDFDLCEACYEVLDADRLPPPHTRDHPMTAIPI
B2: isolated ZZ-DZB domain of KCMF1 (domain or fragment)
chain: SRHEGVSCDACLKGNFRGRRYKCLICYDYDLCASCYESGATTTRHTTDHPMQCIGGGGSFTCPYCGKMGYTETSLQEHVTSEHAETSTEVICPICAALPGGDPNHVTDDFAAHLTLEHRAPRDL
B3: ^NRT peptide (ITC) (peptide)
chain: RTGG

Key:
Test in all cases: ITC
^NRR peptide = biological target: ^NRR peptide
^NRA peptide = biological target: ^NRA peptide
^NLT peptide = biological target: ^NLT peptide
[1] = biological target: B2

Chain of ^NLT peptide (Q9P0J7 other isoform, or with tags, fused parts or gaps): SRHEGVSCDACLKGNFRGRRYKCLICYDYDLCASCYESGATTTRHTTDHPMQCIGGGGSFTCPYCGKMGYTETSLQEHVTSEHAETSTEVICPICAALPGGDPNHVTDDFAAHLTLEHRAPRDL

Binder: B1
- Kd (^NRR peptide): 19 µM
- Kd (^NRA peptide): 10 µM

Binder: B2
- Kd (^NLT peptide): 16 µM

Binder: B3
- Kd [1]: 7 µM

— article PMC7618180 (2025)
